These results are taken from the DeepSol protein solubility set.

The data set can be described thus: soluble on expression in E. coli; label from the status in PepcDB or PDB records.
Turning to “MGSDKIHHHHHHMVRMEEPAVKQGFLHLQQQQTFGKKWRRFAAVLYGESGCALARLELQDVPEKTRRGEATRKVVRLSDCLRVAEVGSEASSPRDTSAFILETKERLYLLAAPSAERSDWIQAICLLAFPGQRKGSPGLEEKSGSPCMEENELYSSSTTGLCKEYMVTIRPTEASERCRLRGSYTLRTGVSALELWGGPEPGTQLYDWPYRFLRRFGRDKATFSFEAGRRCLSGEGNFEFETRHGNEIFQALEKVITVQKNATPSGPPSLPATGPMMPTVLPRPESPYSRPHDSLPSPSPGTLVPGMRPGAPEGEYAVPFDTVAHSLRKSFRGLLTGPPPHLPDPLYDSIQEDPGAPLPDHIYDEPEGVAALSLYDRTQRPSGETWREQATADGGPSSLQQDSSVPDWPQATEYDNVILKKGP”, the “soluble on expression in E. coli” value is given as “not soluble”. For “MAHHHHHHMSVRSGQFNYDAVARESPVGFTKITEGTTAVLEPPPKKKTCTSSAAPAPASNLSDEEADNQLVDQAVFYNPAQVVNRDLSISVIEVFSRLRLTEPRRRGGTNEGITILEALSATGLRAIRYYKEITNVRYIIANDMDADAVDCIVRNCAYNGVPVQYPTLMANMPAAAIELYAGEAEAEKGESATGASPRVGVRAGGAILPNLDDANDLMFRLAMNSNAHPGKRVCLVDAPAETSATASLRPLLQQELMDVVDLDPYGSASPFLDGAFRCIKEGGLMLVTSTDSAILCGNFADTAHAKYSSMPYKAAHCHEAAVRTLLACVERVANRHQKFIVPLLSLHIDFYVRCFFRVYKQPAETKLSACKLGYQLQCSSCSAFWVRPMATARQPRPSRQERRRQRRALAGRVNSDADEAEEEGKTAEGAAEASRAHARPRRLSKRVRDGSDDDEAVAHDVDGVRTEVYPASPSRHSHPKITPLTLQQMPSAASATSTTAATACPVCGSSIVLSGPLYAAPTQNCEFLQQLLALLHERASEGRLNAEARITGLVRIALEELPDCPLFYLLPDVASYVRVRCPPTPCIVGALARLGYRCSQVHCAAAGLKTDCPPEVLFRVMLQWKTVQDTLDPVGEATIEDGADKSKKKAPAASTAPRSLLVTPLAEADFTYDKAHDFRGRVTGVAKFVPNASGWGPRRRHRGAAAVPEAVECGNGEDNDGGSGEA”, the “soluble on expression in E. coli” value is “not soluble”. Consider “MGSDKIHHHHHHMSESDGQSTPQDTREVIMEATFRALSKHGYKDLRVRDIGEEMEMSRQVIHYHFDGKYDLISSFLEYIIDQYEGSVEVDDETDPRTELDVRIDRCLFGPEFDDFSHWDRMKVYHELYAYAQNDDEHRALFNEHYDRLRKSISTVIEDGVEQGTFLDVDAELMGQLITDVIHAARGRRIALGHEDAPDEAKRAVNDFILDSLYPPQ”, for which the “soluble on expression in E. coli” value was “not soluble”. Regarding “MSLATPSFGNSSPQLTFTHVANFMNDAAADVSAVDAKQLAQIRQFLKANKTNLIESLNTIRQNVTSSGDHNKLRSTIANLLQINVDNDPFFAQSEDLSHAVEFFMSERSSRLHIVYSLLVNPDIDLETYSFIDNDRFNVVGKLISIISSVIQNYDIITASSLAHDYNNDQDMFTIVSLVQLKKFSDLKFILQILQILNLMILNTKVPVDIVNQWFLQYQNQFVEFCRNINSTDKSIDTSSLQLYKFQNFQDLSYLSETLISRISSLFTITTILILGLNTSIAQFDIQSPLYMDTETFDTVNSALENDVATNIVNEDPIFHPMIHYSWSFILYYRRALQSSESFDDSDITKFALFAESHDVLQKLNTLSEILSFDPVYTTVITVFLEFSLNFIPITASTSRVFAKIISKAPEQFIENFLTNDTFEKKLSIIKAKLPLLNEEGHHHHHH”, the “soluble on expression in E. coli” value is recorded as “soluble”. Take “TSSTIFSGVAIYVNGYTDPSAEELRKLMMLHGGQYHVYYSRSKTTHIIATNLPNAKIKELKGEKVIRPEWIVESIKAGRLLSYIPYQLYT”: the “soluble on expression in E. coli” value is given as “soluble”.

On to “MSLKMKPPVEKNEYYDVTFEDLTHEGAGVAKVQGFPIFVPNALPEEKAQIKVTRVKKGFAFGRLIELKEESPHRTDAPCPIYKQCGGCQLQHMTYEGQLLFKQKQVKDVLERIGKLDLSKVTVHPTLGMEDPWNYRNKAQVPVGEREGGLVAGFYQQRSHDIIDMSACLIQQSKNDEAVQAVKDICANYGVKAYNEERHKGWLRHIMVRYGVVTGEMMIVFITRTSDFPHKAKIIEDITAQFPHVKSIVQNINPNKTNVIFGNETNVIWGEEYIYDLIGDVKFAISARSFYQVNPEQTKVLYDKALEYAELQGEETVIDAYCGIGTISLFLAKQAKKVYGVEIVPEAIEDAKRNAELNGNTNAEFAVGEAETVIPKWYEEGITADTLVVDPPRKGCDEALLRTIVEMKPKRVVYVSCNPGTLARDLRVLEDGGYVTREVQPVDMFPHTNHVECCVLIKLKEEGHHHHHH”, for which the “soluble on expression in E. coli” value was “soluble”. For “MSVVSNHHSNGNGNSTVYDTNGNDEIKKEVKDEPMASDSEVPFGELMKRDKKEKKQKKRKAESGSDEDDYKPEKRKSSAKNGKKKDVGSDSEDDYKPEKKKSKKNNKKKAQESSEDDDEESEGDVSEEDVKPQIHSDDELEEEDEAPTTDDEEEQKRKEKERRKKEKREKKERKEKKRLEKENRKIKEEDDEDSDDEDDEKAKKKKRKSKGAEKSKPSTSKKDAGGKKEPPKKKVKKEEDIEDIWEWWKEEKKPAGVKWNSLQHCGPLFAPPYIPLPSHVHFKYGGEKMKLTLETEEIAQFYAGVLDHEYSTKEAFNKNFMKDWRKVMTVEERERIHDLKKCDFRAIDAYQKEQREIRKAMTKEEKLKIKEEKEAEVKIYGIAIIDGHRQKVANFRIEPPGVFRGRGGHPKMGLIKKRIMPEDVIINCGKDTEIPKPPPGHKWKEVRHDNTVTWLCSWTESVLGQNKYIMLNPSSKIKGEKDFEKYETARRLKKKIGGIRERYTDDFKSKEMRVRQRATALYFIDKLALRAGNEKDVDEAADTVGCCSLRVEHIKLFDSAKLNEDDKKEKEFVVEFDFLGKDSIRYFNRVSVEKRVYKNLKIFMEGKAPSDDLFDRLDTATLNDHLRSLMDGLTVKVFRTYNASITLQEQLIKLTNPKDNVAAKILSYNRANRQVAILCNHQRAVSKGFDESMQKLEQKIKDKKKEVKEAEAALKSARGAEKEKAQKKYDRLKEQLKKLKISRTDKDENKQIALGTSKLNYIDPRITVAWCKKFEVPLEKVFTKTHREKFRWAIDMTNSSDEEYVF” the value was “soluble”. Turning to “MTIATIDIGGTGIKFASLTPDGKILDKTSISTPENLEDLLAWLDQRLSEQDYSGIAMSVPGAVNQETGVIDGFSAVPYIHGFSWYEALSSYQLPVHLENDANCVGLSELLAHPELENAACVVIGTGIGGAMIINGRLHRGRHGLGGEFGYMTTLAPAEKLNNWSQLASTGNMVRYVIEKSGHTDWDGRKIYQEAAAGNILCQEAIERMNRNLAQGLLNIQYLIDPGVISLGGSISQNPDFIQGVKKAVEDFVDAYEEYTVAPVIQACTYHADANLYGALVNWLQEEKQW”, the “soluble on expression in E. coli” value is reported as “soluble”. Turning to “MSEISIKRAHENEKDAEEDMEPATKKIKSDDVTEEQEKPEIVEKAEKVKSMKKEEAGSLKSPPNDEMESEFTHVLNELSKQKETIKKLLDDLRADNKKRKTHNIRTIFQRKD”, the “soluble on expression in E. coli” value is given as “not soluble”. As for “MSSDKSIEKNTDTIASEVHEGDNHSNNLGSMEEEIKSTPSDQYEEIAIIPTEPLHSDKELNDKQQSLGHEAPTNVSREEPIGISGDEDTQITEQNVNEQRQETREPSSEIDLNEPLDVEKDVTTDVQAPNGLNIEKEYDAVKENEKVYADTKEVVSSPENREVTGKNSGGEKSSSSKFLDDESGTTTAANANDISISSEVTPERSSENDNNQIHITNEVAAGINLNENKEQKAAIEDGPVTAENLSSETARKVPPIPTQIINEKGDNSSENEVSAIPTTSSPPLPPRQNVATSTSPKLPPRGKQREQPPKTKNAVPPPLEEEMKSEKFRKNFEETKRNSYHHVPLTGSKTAQLESTAEINLIASRYRKTSHHLNKEGEETRESLQEGQSFLKSTFTSFLENLSEYNEVENVNEEDREMFKIDWSFWTQVVNDYATVASNEPENLEAHVTNGIPPQIRGIIWQLMANSKSREMEDIYETLLDTECLHEATIRRDLRRTKFVAEDKMESLYKVIKVYSVYDPDVGYTQGMGFIAAPLLINCENEAESFGLLVGLMKNYGLRELFLPGMPGLMLMLYQFDRLLEEHSPSLYNRLIREGISSTMYATQWFLTFFAYKFPLEFVLRIFDIVFVEGIEVLLKFAVNLMLKNEETLVKLRFDELLDFLKDELFNYYLMGNQDDASVVQMGLSNGNSFKGNDDGTFSYNVDLFVHDAMTGVYITPLTLRRYRGEYVEIHEKEQKKEDHYESLRIQNHQLQREAQKLEHDYSILNKENISAANELIQNRLNMEMLLDEKNDLINTITDIKSQIEEEIRKQNLPNPDASLPKADLREDLERTISRNNEVMRENGQLEERITELQAEIDELININKEQVSTASLLERDSKAKGRKGWTGFKKVFK”, the “soluble on expression in E. coli” value was “soluble”.

Take “NRYQDLEKQVITTGNSIIEPLAIASESHLLAESREAVRRLISYAHRKNSKLVRSIAVFDEHHELFVTSNFHPNFEALMFPKDKPIPKLGNSEIYENSLILRVPILSEGHYLSELSNENQGTKAIGYIAVEMDLSSLRLQQYQE”: the “soluble on expression in E. coli” value was “not soluble”. For “MSLAAESTYKKLVMLVDDNETDNFIHRRVLEMGNFSKNIIVKNSGKSALEYLEANQSNSELIPEVIFLDINMPIVDGFVFLFEFESFPESIKERCKIIVLSSSDNKKDIDRIVDNDYVVHFITKPLSEDSIAELKKMVEGHHHHHH”, the “soluble on expression in E. coli” value is recorded as “soluble”. As for “VTALLDVNVLIALGWPNHVHHAAAQRWFTQFSSNGWATTPITEAGYVRISSNRSVMQVSTTPAIAIAQLAAMTSLAGHTFWPDDVPLIVGSAGDRDAVSNHRRVTDCHLIALAARYGGRLVTFDAALADSASAGLVEVL”, the “soluble on expression in E. coli” value was “not soluble”.

For “MTRMLPEPAYRHGSVGKIGVLMINLGTPDAPTAKALRAYLKQFLSEPRIVEFPRWLWWFILNGIILNVRPAKSAKKYEQIWTSEGSPLRVHTARQTALVAALLEQQADSSLVVEYAMIIGNPSIAEKLQQMKVQGCDRILVLPLFPQYAASSTGCVLDGVFSELRKMRNIPDIRTVRHYHDDPGYIAALAQNVRDYWEKHGQPDKLIISFHGVPRKTLEMGDPYHCECQKTGRLLAEALELADDRYQICFQSRFGFAQWLGPYTAEILAELGKQKTGRVDVVCPGFVSDCLETLEEIALEGKAIFTEAGGGEFHYIPSLNEHPLWIEAIGNIIQTHLTGWADRRLSEEAAERSRKRALALGARE”, the “soluble on expression in E. coli” value is on record as “not soluble”.

As for “MGSDKIHHHHHHMTRVEELLSQIKNLKTEKNAIILGHNYMEYSVQLVSDFTGDSYDLAVKAMKTNAKIILFAGVYFMAEQASALNPNKKVLSPDPNAGCTLSDSLDVKTLQEYKEKYPNAPVVLYINTSIYAKALADYIVTSSTAVKVVQKLNADTILFGPDANLANYVQQKVPNKKIIKVPPNGRCIVHANYTKQLVELARKKYPNALLMAHPEAPLEILESADFVGSTNQMIQFSKENKNEEFIVATEIGMINALKIKNPSKKFYPLVTTEACACARCPYMNMINLEKVKRSLEEEVYEVKVPEDIAERVKRAFENTMKLL”, the “soluble on expression in E. coli” value is listed as “not soluble”. Turning to “MGSDKIHHHHHHMNKLRILHLNDLHSHLERFPVIERFFAEKSHEEVESLSFDLGDNVDRVHPLTEATEGQFNVELMNRLDLTAATIGNNEGLGLTHEMLSHLYDEANFPVLLSNLATNFAQSEPLIVTTSFGLRIGLIGLTAPYVLAYPQAGWELSDPFVVLDELLPKLDCDFTILLSHLGKNVDEQIAKDYDEIDLIIGAHTHHLFEHGAQVNQTLLAAAGRYGEYVGQIDLTFNENNQLVDAQIEAIATNTLPQRKSDLVETNGWELRGHKLLEGTVVADLPKALPNVLPDFKGSHYLAKIFADYGNTKLCLMNSGLLVTDELPNHLTLDDLHEFLPHSIRLVRFTFTGEELRQVLLEIMDVSDFLATQKIQGMGFRGKTFGSLIFHGIEPREGDFYIKNSENQSLEKISDEESYQIVLPDQYLFAWYFPLLKKLGKSEILFPYFLREIVAEHFKNK”, the “soluble on expression in E. coli” value is listed as “not soluble”.
